Test results taken from article PMC4417145.

Target: T1, HMGA2 (high-mobility-group protein AT-hook 2) (mammalian (species ), UniProt P52926 1-109)
T1 sequence: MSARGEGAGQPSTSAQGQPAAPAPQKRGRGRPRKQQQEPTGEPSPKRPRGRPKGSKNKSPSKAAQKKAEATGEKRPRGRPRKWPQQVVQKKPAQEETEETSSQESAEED
Test: PDI-ELISA

B1: FL842/FL843 (SELEX1 duplex) (dsDNA)
DNA 1: CCCCCCATATTCGCGATTATTGCGC
DNA 2: GCGCAATAATCGCGAATATGGGGGG
- binding result: binds
